# Residue numbers refer to the chain shown, from its start. Like-named read-outs stand apart in the source and are kept apart here.
# B1: Tie2.1.M100cL (antibody, IgG1, name in Kabat numbering, V domains shown)
# VH: EVQLVESGGGLVQPGGSLRLSCAASGFTFSNTDISWVRQAPGKGLEWVGRISPSDGNTYYADSVKGRFTISADTSKNTAYLQMNSLRAEDTAVYYCARRTRWASWALDYWGQGTLVTVSS
# VL: DIQMTQSPSSLSASVGDRVTITCRASQDVSTAVAWYQQKPGKAPKLLIYSASFLYSGVPSRFSGSGSGTDFTLTISSLQPEDFATYYCQQSYTTPPTFGQGTKVEIKR
# notes: hIgG1
# B2: Tie2.34 (antibody, IgG1, V domains shown)
# VH: EVQLVESGGGLVQPGGSLRLSCAASGFTFSDTYIHWVRQAPGKGLEWVAVIYPDNGATYYADSVKGTYYADSVKGRFTISADTSKNTAYLQMNSLRAEDTAVYYCAREFACARCVYGMDYWGQGTLVTVSS
# VL: B1 VL
# notes: hIgG1 in Biacore; also called Ab34
# B3: Tie2.1.M100cF (antibody, IgG1, V domains shown)
# VH: B1 VH with L107F
# VL: DIQMTQSPSSLSASVGDRVTITCRASQDVSTAVAWYQQKPGKAPKLLIYSASFLYSGVPSRFSGSGSGTDFTLTISSLQPEDFATYYCQQSYTTPPTFGQGTKVEIK
# notes: hIgG1 in the SPR and binning assays
# B4: Tie2.38 (antibody, IgG1, V domains shown)
# VH: EVQLVESGGGLVQPGGSLRLSCAASGFTFSNSAIHWVRQAPGKGLEWVASITPYNGYTYYADSVKGRFTISADTSKNTAYLQMNSLRAEDTAVYYCARRQSYSYVMDYWGQGTLVTVSS
# VL: B1 VL
# notes: hIgG1 in later assays; also called Ab38
# B5: Tie2.33 (antibody, IgG1, V domains shown)
# VH: EVQLVESGGGLVQPGGSLRLSCAASGFTFSGSWISWVRQAPGKGLEWVARINPYDGNTYYADSVKGRFTISADTSKNTAYLQMNSLRAEDTAVYYCARNNRFPTWFDYWGQGTLVTVSS
# VL: B1 VL
# notes: hIgG1 in later assays; also called Ab33; T2.33
# B6: Tie2.1.M100cY (antibody, IgG1, name in Kabat numbering, V domains shown)
# VH: B1 VH with L107Y
# VL: B1 VL
# notes: hIgG1
# Tests used:
# [1] = target: T1, recombinant human Tie2 extracellular domain (human, UniProt Q02763 23-748); test: SPR, IgG captured, 37C
# T1 construct: whole entry named; also called Recombinant human Tie2 ECD; hu Tie2
# Method: (§1) A human antibody capture chip was prepared using a Series S CM5 chip (GE Life Sciences), a human antibody capture kit (GE Life Sciences) and an amine coupling kit (GE Life Sciences). Antibodies diluted to 5 μg/ml in running buffer (10 mM HEPES, 150 mM NaCl, 0.05% Tween 20, 1 mM EDTA, pH 7.4) were non-covalently captured using a contact time of 20 seconds and a flow rate of 10 μl/minute. Binding to 300 nM and 1500 nM recombinant Tie2 was analyzed at 37° C. using a Single Cycle Kinetics method with a contact time of 60 seconds, a dissociation time of 120 seconds and a flow rate of 50 μl/min. Between cycles, the surface was regenerated by a 30 second injection of 3M MgCl₂ at a flow rate of 30 μl/min. Values for antibody capture levels and analyte binding levels were obtained from the Report Point Table (Biacore Evaluation Software v3.0, GE Life Sciences). […] Table 16: Experiment A; Table 17: Experiment B.
# Target sequence in this assay (Q02763 23-748 limits assumed): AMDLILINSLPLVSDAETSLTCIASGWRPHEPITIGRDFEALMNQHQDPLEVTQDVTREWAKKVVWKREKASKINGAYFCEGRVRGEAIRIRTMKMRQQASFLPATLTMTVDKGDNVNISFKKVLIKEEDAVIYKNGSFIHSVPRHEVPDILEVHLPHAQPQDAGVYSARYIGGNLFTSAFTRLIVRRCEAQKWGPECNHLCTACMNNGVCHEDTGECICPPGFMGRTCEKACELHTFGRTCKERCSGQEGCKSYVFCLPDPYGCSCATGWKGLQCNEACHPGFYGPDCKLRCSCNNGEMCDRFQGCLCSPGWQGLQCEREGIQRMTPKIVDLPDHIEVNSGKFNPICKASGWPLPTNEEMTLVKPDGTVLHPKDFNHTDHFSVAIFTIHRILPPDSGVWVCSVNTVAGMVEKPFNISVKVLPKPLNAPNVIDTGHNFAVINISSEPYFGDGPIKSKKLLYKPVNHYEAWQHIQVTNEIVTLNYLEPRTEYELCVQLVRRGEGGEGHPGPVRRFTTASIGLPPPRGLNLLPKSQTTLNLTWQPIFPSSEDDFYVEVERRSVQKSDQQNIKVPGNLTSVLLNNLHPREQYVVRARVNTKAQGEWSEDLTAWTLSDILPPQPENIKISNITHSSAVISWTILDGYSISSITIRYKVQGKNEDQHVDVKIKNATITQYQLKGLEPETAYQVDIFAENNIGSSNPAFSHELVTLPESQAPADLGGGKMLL
# [2] = target: T2, recombinant cyno Tie2 extracellular domain (cynomolgus monkey, UniProt Q02763 23-748 (human entry)); test: SPR, IgG captured, 37C
# T2 construct: also called Recombinant cyno Tie2 ECD; cy Tie2
# T2 chain: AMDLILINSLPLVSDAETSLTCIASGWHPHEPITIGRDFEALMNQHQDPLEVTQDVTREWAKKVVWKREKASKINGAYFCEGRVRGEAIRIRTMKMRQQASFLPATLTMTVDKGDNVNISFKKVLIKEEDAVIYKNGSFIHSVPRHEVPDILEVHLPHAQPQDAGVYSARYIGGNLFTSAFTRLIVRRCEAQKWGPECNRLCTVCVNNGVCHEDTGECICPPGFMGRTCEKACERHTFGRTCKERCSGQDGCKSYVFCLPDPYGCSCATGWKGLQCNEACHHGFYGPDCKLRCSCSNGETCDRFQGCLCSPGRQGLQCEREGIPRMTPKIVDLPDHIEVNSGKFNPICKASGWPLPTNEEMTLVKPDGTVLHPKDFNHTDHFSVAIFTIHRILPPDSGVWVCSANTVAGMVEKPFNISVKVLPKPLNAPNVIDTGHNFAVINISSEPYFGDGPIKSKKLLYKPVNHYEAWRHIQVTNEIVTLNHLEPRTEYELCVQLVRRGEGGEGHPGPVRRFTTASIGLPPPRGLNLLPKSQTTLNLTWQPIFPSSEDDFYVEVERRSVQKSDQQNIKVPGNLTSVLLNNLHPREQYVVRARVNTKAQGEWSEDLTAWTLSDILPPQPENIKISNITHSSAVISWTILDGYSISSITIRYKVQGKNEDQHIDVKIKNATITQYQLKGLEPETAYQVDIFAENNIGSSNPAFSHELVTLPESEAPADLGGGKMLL
# Method: as §1
# [3] = target: T1, recombinant human Tie2 extracellular …; test: SPR, IgG captured, 37C; remark: listed apart in the source
# Method: as §1
# Target sequence in this assay (Q02763 23-748 limits assumed): as the sequence (Q02763 23-748 limits assumed) above
# [4] = target: T2, recombinant cyno Tie2 extracellular …; test: SPR, IgG captured, 37C
# Method: as §1
# human Tie2ECD.flag = target: T3, human Tie2ECD.flag (human, UniProt Q02763 23-748); test: Biacore, hIgG captured, 25C
# T3 construct: also called hTie2.flag; not shown: C-terminal Flag tag
# Method: (§2) Monovalent affinities of selected anti-Tie2 hIgGs were determined using a Biacore T200 instrument (GE Life Sciences). Anti-humanFc was covalently immobilized on a Series S CM5 Biacore sensor chip to enable non-covalent capture of anti-Tie2 antibodies and binding of human or rat Tie2ECD.flag was monitored in real time at 25° C. using a multi-cycle kinetics experiment format. Between cycles, the surface was regenerated with 3 M MgCl₂. Monovalent affinities were determined by kinetic analysis, using Biacore Evaluation Software (GE Life Sciences) to fit a 1:1 binding model to the data.
# rat Tie2ECD.flag = target: T4, rat Tie2ECD.flag (rat, UniProt A0ABK0L6J5 19-740); test: Biacore, hIgG captured, 25C
# T4 construct: extracellular domain; also called rTie2.flag; not shown: C-terminal Flag tag
# Method: as §2
# [5] = target: T1, recombinant human Tie2 extracellular …; test: SPR multi-cycle kinetics, IgG captured, kinetic analysis
# Method: Binding to 300 nM and 1500 nM recombinant Tie2 was analyzed at 37° C. using a Single Cycle Kinetics method with a contact time of 60 seconds, a dissociation time of 120 seconds and a flow rate of 50 μl/min. Between cycles, the surface was regenerated by a 30 second injection of 3M MgCl₂ at a flow rate of 30 μl/min. Values for antibody capture levels and analyte binding levels were obtained from the Report Point Table (Biacore Evaluation Software v3.0, GE Life Sciences). […] Table 16: Experiment A; Table 17: Experiment B.
# (§3) Binding to recombinant human and cyno Tie2 was analyzed using a high performance multi-cycle kinetics format with a contact time of 60 seconds, a dissociation time of 60 seconds, a flow rate of 100 μl/minute and Tie2 concentrations of 5 μM, 2.5 μM, 1.25 μM, 625 nM, 313 nM and 156 nM. Tie2 concentrations of 5 μM, 2.5 μM and 1.25 μM were injected twice. Results were analyzed using Biacore T200 Evaluation Software v3.0 (GE Life Sciences). Results from all three surface densities were analyzed together using the 1:1 Binding model with multiple Rmax and the RI parameter set to zero.
# [6] = target: T1, recombinant human Tie2 extracellular …; test: SPR multi-cycle kinetics, IgG captured, kinetic analysis; human Tie2; kinetic analysis
# Method: as §3
# [7] = target: T2, recombinant cyno Tie2 extracellular …; test: SPR multi-cycle kinetics, IgG captured, kinetic analysis
# Method: as §3
# [8] = target: T2, recombinant cyno Tie2 extracellular …; test: SPR multi-cycle kinetics, IgG captured, kinetic analysis; cyno Tie2; kinetic analysis
# Method: as §3
# [9] = target: T1, recombinant human Tie2 extracellular …; test: SPR, IgG captured, steady state analysis
# Method: as §3
# [10] = target: T2, recombinant cyno Tie2 extracellular …; test: SPR, IgG captured, steady state analysis
# Method: as §3
# [11] = target: T5, mouse Tie2 full extracellular domain fused to mIgG2a Fc (mouse, UniProt Q02858 23-746); test: phage ELISA
# T5 construct: extracellular domain; also called mFull.Fc; not shown: Fc region of mIgG2a, fused at the C-terminus
# Method: Clones from the fourth round were screened for Tie2 binding and specificity by ELISA. Screening ELISAs were carried out by coating the wells of a 96-well microtiter plate with Tie2 protein or irrelevant protein at 65 ul per well (1 ug/ml in coating buffer) at 4° C. overnight. In a 96-tube plate, colonies from the fourth round were grown overnight at 37° C. in 400 ul 2YT media with 50 ug/ml carbenicillin and helper phage K07. The plate was spun down at 3000 rpm for 10 min. 30 ul of the culture supernatant was added with 60 ul of ELISA buffer (PBS with 0.5% BSA and 0.05% Tween20) to the Tie2-coated plate and incubated at room temperature for 1 hr. Plates were washed with PBS—0.05% Tween20 and 100 ul/well of horseradish peroxidase (HRP)-conjugated anti-M13 antibody (1/5000 dilution in PBS plus 0.5% BSA and 0.05% Tween20) at room temperature for 30 min (Sidhu et al., supra). The wells were washed with PBS—0.05% Tween20 prior to 100 ul/well of a 1:1 ratio of 3,3′,5,5′-tetramethylbenzidine (TMB) peroxidase substrate and Peroxidase Solution B (H₂O₂) ((Kirkegaard-Perry Laboratories (Gaithersburg, Md.)) being added per well and incubated for 5 min at room temperature. The reaction was stopped by adding 100 ul 1M phosphoric Acid (H₃PO₄) per well and the OD of wells was determined using a standard ELISA plate reader at 450 nm.
# omalizumab = target: T6, omalizumab; test: phage ELISA
# T6 construct: Used as irrelevant coated protein; also called irrelevant Fc-containing protein; not shown: the constant regions
# T3 sequence (Q02763 23-748 limits assumed): as the sequence (Q02763 23-748 limits assumed) above
Binder,"Normalized Binding Signal, 300 nM [1]","Normalized Binding Signal, 1500 nM [1]","Normalized Binding Signal, 300 nM [2]","Normalized Binding Signal, 1500 nM [2]","Normalized Binding Signal, 300 nM [3]","Normalized Binding Signal, 1500 nM [3]","Normalized Binding Signal, 300 nM [4]","Normalized Binding Signal, 1500 nM [4]",Kd (human Tie2ECD.flag),Kd (rat Tie2ECD.flag),binding result [11],binding result (omalizumab),other results
B1,0.12,0.41,0.1,0.39,0.13,0.42,0.11,0.4,,,,,
B2,,,,,,,,,155 nM,57 nM,,,
B3,0.16,0.48,0.14,0.46,0.14,0.44,0.12,0.42,,,,,koff [5]: 0.39 s⁻¹; kon [5]: 220000 M⁻¹ s⁻¹; Kd [6]: 2000 nM; koff [7]: 0.37 s⁻¹; kon [7]: 190000 M⁻¹ s⁻¹; Kd [8]: 2000 nM; Kd [9]: 2000 nM; Kd [10]: 2000 nM
B4,,,,,,,,,376 nM,2200 nM,binds,no binding,
B5,,,,,,,,,,,binds,no binding,
B6,0.15,0.47,0.13,0.45,0.15,0.46,0.13,0.44,,,,,
